Test results from publication PMC9644274.

Columns and labels:
Experiment in all cases: FRET or BRET; FRET-FLIM in tobacco leaf epidermal cells, transient expression; GFP fusion as donor, mRFP fusion as acceptor; a reduction of the donor's lifetime of 0.2 ns or more is taken as energy transfer
[1] = target: TMV-30k-GFP (tobacco mosaic virus)
[2] = target: CMV-3a-GFP (cauliflower mosaic virus in p-0009; cucumber mosaic virus in p-0012)
[3] = target: GFP-PVX-TGB2 (potato virus X)
[4] = target: GFP-PMTV-TGB2 (potato mop-top virus)
[5] = target: T1, GFP-RTN3 (Arabidopsis thaliana), Q9SH59; details: remark: other sources report otherwise
T1 chain: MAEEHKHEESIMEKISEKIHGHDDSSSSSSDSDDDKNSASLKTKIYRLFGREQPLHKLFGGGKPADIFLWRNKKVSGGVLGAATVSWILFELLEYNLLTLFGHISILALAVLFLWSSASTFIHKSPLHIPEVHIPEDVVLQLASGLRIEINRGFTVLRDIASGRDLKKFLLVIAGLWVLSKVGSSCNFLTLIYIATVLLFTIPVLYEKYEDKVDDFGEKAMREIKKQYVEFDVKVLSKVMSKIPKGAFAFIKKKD

B1: mRFP-RTN6 (natural protein)
chain: MAEELEKSMHKEESLMEKIADKIHDHDSSSSSDSEHEKPESPSALKAKIYRLFGREKPVHKVLGGGLPADVFLWRDKKLSASVLGVATAIWVLFELVEYHFLSLVCHILIFALAALFLLSNAHAFMNKTPPKIPEIHIKEEHFLMIVSALRNELNQAFVILRSIALGRDLKKFLMVVFGLWIISVVGNWFNFLTLVYICFVVLHTVPMLYEKHEDKVDPVAEKTLKELKKHYMVFDEKVLSKLPVASLKAKLG
Question: How did the average GFP fluorescence lifetime of the donor with the acceptor [1] turn out when B1 was run?
Answer: Its average GFP fluorescence lifetime of the donor with the acceptor is 2.08 ns.

Question: What about the reduction of the GFP lifetime against the donor alone (Δ) [1] of the same binder?
Answer: The reduction of the GFP lifetime against the donor alone (Δ) was 0.32 ns.

Question: And the average GFP fluorescence lifetime of the donor with the acceptor [2]?
Answer: The average GFP fluorescence lifetime of the donor with the acceptor was 2.04 ns.

Question: What about the reduction of the GFP lifetime against the donor alone (Δ) [2] of the same binder?
Answer: Its reduction of the GFP lifetime against the donor alone (Δ) is 0.33 ns.

Question: What about the average GFP fluorescence lifetime of the donor with the acceptor [3] of the same binder?
Answer: Its average GFP fluorescence lifetime of the donor with the acceptor is 2.08 ns.

Question: What about the reduction of the GFP lifetime against the donor alone (Δ) [3] of the same binder?
Answer: The reduction of the GFP lifetime against the donor alone (Δ) was 0.31 ns.

Question: And the average GFP fluorescence lifetime of the donor with the acceptor [4]?
Answer: The average GFP fluorescence lifetime of the donor with the acceptor was 2.19 ns.

Question: What about the reduction of the GFP lifetime against the donor alone (Δ) [4] of the same binder?
Answer: Its reduction of the GFP lifetime against the donor alone (Δ) is 0.22 ns.

B2: mRFP-RTN6, Q6DBN4 1-253 (natural protein)
chain: MAEELEKSMHKEESLMEKIADKIHDHDSSSSSDSEHEKPESPSALKAKIYRLFGREKPVHKVLGGGLPADVFLWRDKKLSASVLGVATAIWVLFELVEYHFLSLVCHILIFALAALFLLSNAHAFMNKTPPKIPEIHIKEEHFLMIVSALRNELNQAFVILRSIALGRDLKKFLMVVFGLWIISVVGNWFNFLTLVYICFVVLHTVPMLYEKHEDKVDPVAEKTLKELKKHYMVFDEKVLSKLPVASLKAKLG
Question: With B2 as the binder, how does the average GFP fluorescence lifetime of the donor with the acceptor [5] read?
Answer: The average GFP fluorescence lifetime of the donor with the acceptor was 2.2 ns.

Question: And the reduction of the GFP lifetime against the donor alone (Δ) [5]?
Answer: The reduction of the GFP lifetime against the donor alone (Δ) was 0.22 ns.

B3: mRFP-RTN3 (natural protein)
chain: MAEEHKHEESIMEKISEKIHGHDDSSSSSSDSDDDKNSASLKTKIYRLFGREQPLHKLFGGGKPADIFLWRNKKVSGGVLGAATVSWILFELLEYNLLTLFGHISILALAVLFLWSSASTFIHKSPLHIPEVHIPEDVVLQLASGLRIEINRGFTVLRDIASGRDLKKFLLVIAGLWVLSKVGSSCNFLTLIYIATVLLFTIPVLYEKYEDKVDDFGEKAMREIKKQYVEFDVKVLSKVMSKIPKGAFAFIKKKD
Question: What does the source list for B3?
Answer: average GFP fluorescence lifetime of the donor with the acceptor [1]: 2.09 ns; reduction of the GFP lifetime against the donor alone (Δ) [1]: 0.31 ns; average GFP fluorescence lifetime of the donor with the acceptor [2]: 2.05 ns; reduction of the GFP lifetime against the donor alone (Δ) [2]: 0.32 ns; average GFP fluorescence lifetime of the donor with the acceptor [3]: 2.07 ns; reduction of the GFP lifetime against the donor alone (Δ) [3]: 0.32 ns; average GFP fluorescence lifetime of the donor with the acceptor [4]: 2.12 ns; reduction of the GFP lifetime against the donor alone (Δ) [4]: 0.29 ns
